B1: EIF2AK2 (protein, UniProt P19525 2-551, looked up)
Interferon-induced, …: AGDLSAGFFMEELNTYRQKQGVVLKYQELPNSGPPHDRRFTFQVIIDGREFPEGEGRSKKEAKNAAAKLAVEILNKEKKAVSPLLLTTTNSSEGLSMGNYIGLINRIAQKKRLTVNYEQCASGVHGPEGFHYKCKMGQKEYSIGTGSTKQEAKQLAAKLAYLQILSEETSVKSDYLSSGSFATTCESQSNSLVTSTLASESSSEGDFSADTSEINSNSDSLNSSSLLMNGLRNNQRKAKRSLAPRFDLPDMKETKYTVDKRFGMDFKEIELIGSGGFGQVFKAKHRIDGKTYVIKRVKYNNEKAEREVKALAKLDHVNIVHYNGCWDGFDYDPETSDDSLESSDYDPENSKNSSRSKTKCLFIQMEFCDKGTLEQWIEKRRGEKLDKVLALELFEQITKGVDYIHSKKLIHRDLKPSNIFLVDTKQVKIGDFGLVTSLKNDGKRTRSKGTLRYMSPEQISSQDYGKEVDLYALGLILAELLHVCDTAFETSKFFTDLRDGIISDIFDKKEKTLLQKLLSKKPEDRPNTSEILRTLTVWKKSPEKNERHTC
B2: LIG3 (protein, UniProt P49916 43-1009, looked up)
DNA ligase 3: LLHGHPLFLRRKPVLSFQGSHLRSRATYLVFLPGLHVGLCSGPCEMAEQRFCVDYAKRGTAGCKKCKEKIVKGVCRIGKVVPNPFSESGGDMKEWYHIKCMFEKLERARATTKKIEDLTELEGWEELEDNEKEQITQHIADLSSKAAGTPKKKAVVQAKLTTTGQVTSPVKGASFVTSTNPRKFSGFSAKPNNSGEAPSSPTPKRSLSSSKCDPRHKDCLLREFRKLCAMVADNPSYNTKTQIIQDFLRKGSAGDGFHGDVYLTVKLLLPGVIKTVYNLNDKQIVKLFSRIFNCNPDDMARDLEQGDVSETIRVFFEQSKSFPPAAKSLLTIQEVDEFLLRLSKLTKEDEQQQALQDIASRCTANDLKCIIRLIKHDLKMNSGAKHVLDALDPNAYEAFKASRNLQDVVERVLHNAQEVEKEPGQRRALSVQASLMTPVQPMLAEACKSVEYAMKKCPNGMFSEIKYDGERVQVHKNGDHFSYFSRSLKPVLPHKVAHFKDYIPQAFPGGHSMILDSEVLLIDNKTGKPLPFGTLGVHKKAAFQDANVCLFVFDCIYFNDVSLMDRPLCERRKFLHDNMVEIPNRIMFSEMKRVTKALDLADMITRVIQEGLEGLVLKDVKGTYEPGKRHWLKVKKDYLNEGAMADTADLVVLGAFYGQGSKGGMMSIFLMGCYDPGSQKWCTVTKCAGGHDDATLARLQNELDMVKISKDPSKIPSWLKVNKIYYPDFIVPDPKKAAVWEITGAEFSKSEAHTADGISIRFPRCTRIRDDKDWKSATNLPQLKELYQLSKEKADFTVVAGDEGSSTTGGSSEENKGPSGSAVSRKAPSKPSASTKKAEGKLSNSNSKDGNMQTAKPSAMKVGEKLATKSSPVKVGEKRKAADETLCQTKVLLDIFTGVRLYLPPSTPDFSRLRRYFVAFDGDLVQEFDMTSATHVLGSRDKNPAAQQVSPEWIWACIRKRRLVAPC
B3: CSNK1A1 (protein, UniProt P48729 2-337, looked up)
Casein kinase I isoform alpha: ASSSGSKAEFIVGGKYKLVRKIGSGSFGDIYLAINITNGEEVAVKLESQKARHPQLLYESKLYKILQGGVGIPHIRWYGQEKDYNVLVMDLLGPSLEDLFNFCSRRFTMKTVLMLADQMISRIEYVHTKNFIHRDIKPDNFLMGIGRHCNKLFLIDFGLAKKYRDNRTRQHIPYREDKNLTGTARYASINAHLGIEQSRRDDMESLGYVLMYFNRTSLPWQGLKAATKKQKYEKISEKKMSTPVEVLCKGFPAEFAMYLNYCRGLRFEEAPDYMYLRQLFRILFRTLNHQYDYTFDWTMLKQKAAQQAASSSGQGQQAQTPTGKQTDKTKSNMKGF

test system: GFP-14-3-3β and its binding proteins; test: GFP-14-3-3β co-IP with LC-MS/MS label-free quantification, untreated versus PP1c-treated; set-up: species or system human; conditions: pairwise comparison PP1 vs untreated

Molecule | Difference (log2), PP1 vs untreated [log2]
B1 | -0.09631
B2 | -0.06583
B3 | -0.08165

test system: GFP-14-3-3β; test: GFP-14-3-3β co-IP with LC-MS/MS, untreated GFP-14-3-3β versus GFP control (14-3-3 interactome); format: binding, human; conditions: pairwise comparison untreated vs GFP

Molecule | Difference (log2), untreated vs GFP [log2]
B1 | 2.168
B2 | -0.6994
B3 | 0.6201

Reference: publication PMC7367873, “Dissecting the sequence determinants for dephosphorylation by the catalytic subunits of phosphatases PP1 and PP2A” (Nature Communications, 2020)
